Measurements: patent US20210388087A1 (Chugai, published 2021)

T1: Human CD3eg linker (human)
T1 construct: Single chain: epsilon and gamma subunits of human CD3 joined by a 29-mer linker, Flag-tag at the C-terminus; also called recombinant human CD3
T1 chain: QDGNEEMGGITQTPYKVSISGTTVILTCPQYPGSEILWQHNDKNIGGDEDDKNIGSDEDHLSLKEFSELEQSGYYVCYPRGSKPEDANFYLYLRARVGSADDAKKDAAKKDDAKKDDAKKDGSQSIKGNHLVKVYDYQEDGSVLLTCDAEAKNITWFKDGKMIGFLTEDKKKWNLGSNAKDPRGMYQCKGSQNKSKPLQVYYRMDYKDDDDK


Target: T1, Human CD3eg linker
Assay: Biacore SPR, vs template H183/L072

Binder	fold change of affinity
H183/L072 VH L100dI (antibody, name in Kabat numbering, V domains shown) VH: QVQLVESGGGLVQPGRSLRLSCAASGFTFSNAWMHWVRQAPGKGLEWVAQIKDKGNAYAAYYAPSVKGRFTISRDDSKNSIYLQMNSLKTEDTAVYYCHYVHYASASTVIPAFGVDAWGQGTTVTVSS VL: DIVMTQSPLSLPVTPGEPASISCQASQELVHMNRNTYLHWYQQKPGQAPRLLIYKVSNRFPGVPDRFSGSGSGTDFTLKISRVEAEDVGVYYCAQGTSVPFTFGQGTKLEIK	1.2 fold
H183/L072 VH L100dP (antibody, name in Kabat numbering, V domains shown) VH: QVQLVESGGGLVQPGRSLRLSCAASGFTFSNAWMHWVRQAPGKGLEWVAQIKDKGNAYAAYYAPSVKGRFTISRDDSKNSIYLQMNSLKTEDTAVYYCHYVHYASASTVPPAFGVDAWGQGTTVTVSS VL: DIVMTQSPLSLPVTPGEPASISCQASQELVHMNRNTYLHWYQQKPGQAPRLLIYKVSNRFPGVPDRFSGSGSGTDFTLKISRVEAEDVGVYYCAQGTSVPFTFGQGTKLEIK	1.4 fold
H183/L072 VH L100dM (antibody, name in Kabat numbering, V domains shown) VH: QVQLVESGGGLVQPGRSLRLSCAASGFTFSNAWMHWVRQAPGKGLEWVAQIKDKGNAYAAYYAPSVKGRFTISRDDSKNSIYLQMNSLKTEDTAVYYCHYVHYASASTVMPAFGVDAWGQGTTVTVSS VL: DIVMTQSPLSLPVTPGEPASISCQASQELVHMNRNTYLHWYQQKPGQAPRLLIYKVSNRFPGVPDRFSGSGSGTDFTLKISRVEAEDVGVYYCAQGTSVPFTFGQGTKLEIK	1 fold
H183/L072 VH M34G (antibody, name in Kabat numbering, V domains shown) VH: QVQLVESGGGLVQPGRSLRLSCAASGFTFSNAWGHWVRQAPGKGLEWVAQIKDKGNAYAAYYAPSVKGRFTISRDDSKNSIYLQMNSLKTEDTAVYYCHYVHYASASTVLPAFGVDAWGQGTTVTVSS VL: DIVMTQSPLSLPVTPGEPASISCQASQELVHMNRNTYLHWYQQKPGQAPRLLIYKVSNRFPGVPDRFSGSGSGTDFTLKISRVEAEDVGVYYCAQGTSVPFTFGQGTKLEIK	0 fold
H183/L072 VH M34D (antibody, name in Kabat numbering, V domains shown) VH: QVQLVESGGGLVQPGRSLRLSCAASGFTFSNAWDHWVRQAPGKGLEWVAQIKDKGNAYAAYYAPSVKGRFTISRDDSKNSIYLQMNSLKTEDTAVYYCHYVHYASASTVLPAFGVDAWGQGTTVTVSS VL: DIVMTQSPLSLPVTPGEPASISCQASQELVHMNRNTYLHWYQQKPGQAPRLLIYKVSNRFPGVPDRFSGSGSGTDFTLKISRVEAEDVGVYYCAQGTSVPFTFGQGTKLEIK	0 fold
H183/L072 VH M34E (antibody, name in Kabat numbering, V domains shown) VH: QVQLVESGGGLVQPGRSLRLSCAASGFTFSNAWEHWVRQAPGKGLEWVAQIKDKGNAYAAYYAPSVKGRFTISRDDSKNSIYLQMNSLKTEDTAVYYCHYVHYASASTVLPAFGVDAWGQGTTVTVSS VL: DIVMTQSPLSLPVTPGEPASISCQASQELVHMNRNTYLHWYQQKPGQAPRLLIYKVSNRFPGVPDRFSGSGSGTDFTLKISRVEAEDVGVYYCAQGTSVPFTFGQGTKLEIK	0 fold
H183/L072 VH M34F (antibody, name in Kabat numbering, V domains shown) VH: QVQLVESGGGLVQPGRSLRLSCAASGFTFSNAWFHWVRQAPGKGLEWVAQIKDKGNAYAAYYAPSVKGRFTISRDDSKNSIYLQMNSLKTEDTAVYYCHYVHYASASTVLPAFGVDAWGQGTTVTVSS VL: DIVMTQSPLSLPVTPGEPASISCQASQELVHMNRNTYLHWYQQKPGQAPRLLIYKVSNRFPGVPDRFSGSGSGTDFTLKISRVEAEDVGVYYCAQGTSVPFTFGQGTKLEIK	0.1 fold
H183/L072 VH M34A (antibody, name in Kabat numbering, V domains shown) VH: QVQLVESGGGLVQPGRSLRLSCAASGFTFSNAWAHWVRQAPGKGLEWVAQIKDKGNAYAAYYAPSVKGRFTISRDDSKNSIYLQMNSLKTEDTAVYYCHYVHYASASTVLPAFGVDAWGQGTTVTVSS VL: DIVMTQSPLSLPVTPGEPASISCQASQELVHMNRNTYLHWYQQKPGQAPRLLIYKVSNRFPGVPDRFSGSGSGTDFTLKISRVEAEDVGVYYCAQGTSVPFTFGQGTKLEIK	0 fold
